Assay results from patent US12497460B2, “Anti-MSR1 antibodies and methods of use thereof” (REGENERON PHARMACEUTICALS, INC., priority 2018, dated 2025).

What was measured:
[1] = target: HMM-mfMSR1 (monkey MSR1 extracellular domain); assay: Biacore surface plasmon resonance binding kinetics of anti-MSR1 mAbs, antibody-capture format; conditions: analyte HMM-mfMSR1, NB = no binding observed; for kd: * = no dissociation observed, kd manually fixed at 1.00E−05; for ka: antibody-capture format
Method: (§1) Binding affinities and kinetic constants of human anti-MSR1 antibodies for different MSR1 reagents were determined by real-time surface plasmon resonance (Biacore 4000). All binding studies were performed in 10 mM HEPES, 150 mM NaCl, 3 mM EDTA, and 0.05% v/v Surfactant Tween-20, pH 7.4 (HBS-ET) running buffer at 25° C. and 37° C.
(§2) The association rate (ka) and dissociation rate (kd) were determined by fitting the real-time binding sensorgrams to a 1:1 binding model with mass transport limitation using Scrubber 2.0c curve-fitting software. Binding dissociation equilibrium constant (KD) and dissociative half-life (t½) were calculated from the kinetic rates as: […]

[2] = target: T1, His9-hMSR1 (human MSR1 extracellular domain) (Homo sapiens, UniProt P21757); assay: as above; conditions: analyte His9-hMSR1, NB = no binding observed; for kd: * = no dissociation observed, kd manually fixed at 1.00E−05; for ka: antibody-capture format
T1 construct: human MSR1 extracellular domain expressed with a N-terminal nonahistidine tag; His9 (nonahistidine) (N); purchased R&D Systems 2708-MS
T1 sequence (P21757 77-451 limits assumed): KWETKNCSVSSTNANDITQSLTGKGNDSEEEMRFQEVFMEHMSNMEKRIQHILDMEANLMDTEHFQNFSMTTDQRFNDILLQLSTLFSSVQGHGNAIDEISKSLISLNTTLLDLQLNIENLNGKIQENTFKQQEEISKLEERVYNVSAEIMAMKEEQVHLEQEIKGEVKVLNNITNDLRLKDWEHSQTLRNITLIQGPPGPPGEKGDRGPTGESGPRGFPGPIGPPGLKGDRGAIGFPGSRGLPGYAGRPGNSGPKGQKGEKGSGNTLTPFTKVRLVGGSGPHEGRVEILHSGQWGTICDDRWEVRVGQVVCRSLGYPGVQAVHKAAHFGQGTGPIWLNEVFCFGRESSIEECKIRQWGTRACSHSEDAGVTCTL
Method: as §1, §2

[3] = target: T1, His9-hMSR1 (human MSR1 extracellular domain); assay: Biacore T200 surface plasmon resonance binding kinetics of anti-MSR1 antibody-drug conjugates and parental antibodies; conditions: 25° C.
Outline: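 Anti-MSR1 mAbs (ADCs with LXR or steroid linker-payloads, and unconjugated parents) captured on anti-human Fcγ surface; His9-tagged human MSR1 extracellular domain as analyte in HBS-ET, pH 7.4, 25° C. ka and kd from 1:1 fit with mass transport limitation; KD and t½ calculated from kinetic rates.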

[4] = target: T2, PMA-treated THP-1 cells (endogenously expressed human MSR1) (Homo sapiens, UniProt P21757); assay: Electrochemiluminescence antibody binding assay on MSR1-expressing cells; type: cell-based
T2 construct: endogenous in cells; host or cells: THP-1 cells differentiated with PMA
T2 sequence (P21757 1-451): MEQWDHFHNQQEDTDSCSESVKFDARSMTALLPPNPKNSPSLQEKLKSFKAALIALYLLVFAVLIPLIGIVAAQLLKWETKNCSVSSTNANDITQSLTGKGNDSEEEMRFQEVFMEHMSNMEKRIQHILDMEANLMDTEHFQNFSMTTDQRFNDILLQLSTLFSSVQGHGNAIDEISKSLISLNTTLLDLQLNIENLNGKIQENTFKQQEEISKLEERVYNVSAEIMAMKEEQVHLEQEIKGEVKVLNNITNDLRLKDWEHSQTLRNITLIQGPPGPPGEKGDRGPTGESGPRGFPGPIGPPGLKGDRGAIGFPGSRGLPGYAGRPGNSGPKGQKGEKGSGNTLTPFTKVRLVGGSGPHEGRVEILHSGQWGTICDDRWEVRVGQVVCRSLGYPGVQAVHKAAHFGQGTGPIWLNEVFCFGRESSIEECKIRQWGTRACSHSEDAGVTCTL

parental HEK293 cells = assay: Electrochemiluminescence antibody binding assay, non-specific binding control cells; type: cell-based, human

Sequence of HMM-mfMSR1 (monkey MSR1 extracellular domain) (as listed by the source): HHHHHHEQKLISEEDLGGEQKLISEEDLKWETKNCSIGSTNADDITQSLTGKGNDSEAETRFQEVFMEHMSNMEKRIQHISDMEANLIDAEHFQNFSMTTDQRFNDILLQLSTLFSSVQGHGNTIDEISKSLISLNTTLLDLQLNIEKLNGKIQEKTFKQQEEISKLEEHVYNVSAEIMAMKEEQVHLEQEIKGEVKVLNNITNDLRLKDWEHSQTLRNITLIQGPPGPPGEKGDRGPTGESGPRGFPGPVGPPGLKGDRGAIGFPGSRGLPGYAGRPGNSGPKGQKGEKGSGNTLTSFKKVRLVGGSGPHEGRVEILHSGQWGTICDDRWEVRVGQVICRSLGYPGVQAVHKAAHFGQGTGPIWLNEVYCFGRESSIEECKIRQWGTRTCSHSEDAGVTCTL

- kd ([1]; 25° C.): 1.76e-05 s⁻¹
- ka ([1]; 25° C.): 235000 M⁻¹ s⁻¹
- kd ([1]; 37° C.): 3.53e-05 s⁻¹
- ka ([1]; 37° C.): 701000 M⁻¹ s⁻¹
- kd ([2]; 25° C.): 1.00E−05* s^−1
- ka ([2]; 25° C.): 290000 M⁻¹ s⁻¹
- kd ([2]; 37° C.): 2.53e-05 s⁻¹
- ka ([2]; 37° C.): 663000 M⁻¹ s⁻¹
- ka ([3]; Table 19, antibody-LXR ADCs and unconjugated antibodies): 200000 M⁻¹ s⁻¹
- kd ([3]; Table 19, * = no dissociation observed, kd manually fixed at 1.00E−05): 1.00E−05* s^−1
- Ratio of 11 nM Antibody Binding Signal (RLU) to isotype control, PMA-treated THP-1 [4]: 66
B1: H1H27754P-N297Q: one of "Twelve anti-MSR1 antibodies"; "made with an N297Q single point mutation in human Fcγ portion" (antibody, V domains shown)
VH: EVQLVESGGGLVQPGGSLRLSCAASGFTFRTYAMTWVRQAPGKGLDWVSAITGDGGNTYYADSVKGRFTISRDNSKNTLYLQMNSLRAEDTAIYYCAKDQRFSFALYYFDYWGQGTLVTVSS
VL: DIQMTQSPSSVSASVGDRVTITCRASQGISSWLAWYQQKPGNAPKLLIYAAFSLQSGVPSRFSGSGSGTDFTLTISSLQPEDFATYYCQQANNFPWTFGQGTKVEIKR
- Ratio of 11 nM Antibody Binding Signal (RLU) to isotype control, HEK293 (parental HEK293 cells): 18
